How the values were obtained:
[1] = biological target: full-length Le Blanc δ (Le Blanc virus); test: intact-protein LC-MS (reverse phase C3 column, Orbitrap); purified δ diluted to 200 ng/μl in 2% ACN, 0.1% FA; ZORBAX C3-300SB column, gradient 5% to 95% B; Orbitrap Fusion Lumos, positive mode; observed mass compared with the theoretical pentamer mass
[2] = biological target: full-length Santeuil δ (Santeuil virus); test: as above
[3] = biological target: Orsay virus capsid protein (CP) (Orsay virus); test: co-sedimentation; infectious Orsay virions from culture supernatant of infected rde-1 worms, Triton X-100 treated, pelleted, banded on a 25% to 47.5% iodixanol step gradient (~1.3 g/ml); SDS-PAGE and Western blot with anti-CP antiserum, band intensities measured with Fiji
[4] = biological target: Orsay δ(1–101) (Orsay virus); test: crystal structure; Orsay δ(1–101) crystallised by hanging drop, 0.1 M ammonium sulfate, 0.1 M sodium acetate pH 4.6, 25% PEG 4000, 20°C; space group P212121, five chains in the asymmetric unit; 1.8 Å

How did the stoichiometry N [1] turn out when “full-length Le Blanc δ (natural protein)” was run?
Its stoichiometry N is 5.

Which stoichiometry N [2] does the source give for “full-length Santeuil δ (natural protein)” here?
The stoichiometry N was 5.

With “Orsay CP-δ fusion protein (natural protein)” as the substance, how does the pentameric CP-δ fibers per viral particle (fibers per viral particle) [3] read?
Its pentameric CP-δ fibers per viral particle (fibers per viral particle) is 1.1.

How did the stoichiometry N [4] turn out when Orsay δ(1–101) (domain or fragment) was run?
Its stoichiometry N is 5.

Source: PMC7565637
